Molecular target: unmodified nucleosome core particle (human | Xenopus laevis, UniProt P04908 1-130; P06899 1-126)
Test: SPR

B1: CPC_LM containing the Survivin BIR mutant K62/E65/H80A (complex)
chain 1: MAPRKGSSRVAKTNSLRRRKLASFLKDFDREVEIRIKQIESDRQNLLKEVDNLYNIEILRLPKALREMNWLDYFALGGNKQALEEAATADLDITEINKLTAEAIQTPLKSAKTRKVIQVDEMIVEEEEEEENERKNLQTARVKRCPPSKKRTQSIQGKGKGKRSSRANTVTPAVGRLEVSMVKPTPGLTPRFDSRVFKTPGLRTPAAGERIYNISGNGSPLADSKEIFLTVPVGGGESLRLLASDLQRHSIAQLDPEALGNIKKLSNRLAQICSSIRTHK
chain 2: MGAPTLPPAWQPFLKDHRISTFKNWPFLEGCACTPERMAEAGFIHCPTENEPDLAQCFFCFAELAGWEPDDDPIEEHKKASSGCAFLSVKKQFEELTLGEFLKLDRERAKNKIAKETNNKKKEFEETAKKVRRAIEQLAAMD
chain 3: MGTTAPGPIHLLELCDQKLMEFLCNMDNKDLVWLEEIQEEAERMFTREFSKEPELMPK
- Kd: 309 nM
